In publication PMC9927553 one finds binding data, which are given here for 3 sequences.

Numbering of substitutions follows the chain as printed.

Data set [1] addresses T1, LexA (E. coli) (Escherichia coli MG1655) (UniProt P0A7C2).
T1 sequence: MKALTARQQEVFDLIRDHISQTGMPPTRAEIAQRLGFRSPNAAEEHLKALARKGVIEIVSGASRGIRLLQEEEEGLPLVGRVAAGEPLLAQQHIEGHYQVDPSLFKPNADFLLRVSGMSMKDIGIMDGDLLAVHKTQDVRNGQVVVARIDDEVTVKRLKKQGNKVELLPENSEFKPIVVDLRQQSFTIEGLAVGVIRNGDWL
As to the kind of experiment: EMSA. As to conditions: EMSA: 40 ng DNA probe, 0-600 ng LexA, binding buffer E (composition not stated; Thermo E33075 EMSA kit), 10 uL, 20 min on ice; 6% native Tris-glycine PAGE …. In general terms: A gel shift assay detects complexes by their altered migration in electrophoresis.

The target in data set [2] is T2, LexA (Salmonella) (Salmonella enterica serotype Agona strain 47SA97) (UniProt B5F1Q6).
T2 sequence: T1 sequence with I56L, E74D, N108S, K175T, Q183E, D200E
Description: EMSA. As to conditions: EMSA: 40 ng DNA probe, 0-600 ng LexA, binding buffer E (composition not stated; Thermo E33075 EMSA kit), 10 uL, 20 min on ice; 6% native Tris-glycine PAGE ….

Consider “ACACACCTGATTTATTCACTGATTAACTTTGTCATCAATCATAAATACCATGACTTTTTGATAATGCAACGCCAAATAAGTTGTTTTTTTACAGTATCATTTTATGGTGCTATGAAGATTTGCATTTCTGAACGATAATCTATAATCGGTTACATATTAATCAGGAGGCGT (double strand) [PsgaDC* probe]”, for which the binding entry in data set [1] and in data set [2] was “no binding” each time.

Turning to “ACACACCTGATTTATTCACTGATTAACTTTGTCATCAATCATAAATACCATGACTTTTTGATAATGCAACGCCAAATACTGTGTTTTTTTACAGTATCATTTTATGGTGCTATGAAGATTTGCATTTCTGAACGATAATCTATAATCGGTTACATATTAATCAGGAGGCGT (double strand) [PsgaDC probe]”, the binding entry in data set [1] and in data set [2] was “binds” in each case.

As for “AGTTGTTCCGCAGTAGCCATTATTCAATCTCCATAAGACGGGGCAACTTTACCAATTTTATACAATAAAGTCTGTGTAGTATGACAGGGTTTAAGCACTTAATCCCCTCTAGAATTTTGTACACTCACCACCCCTACATGATTATAAATAGTCGTTCTAGATACACCATATCGCCTAGCAACA (double strand) [PsgiAT probe]”, the binding entry in data set [1] and in data set [2] was “no binding” in each case.
